In one series the test system is RTG-2 cells. Kind of series: Translocation mechanism study with uptake pathway inhibitors in RTG-2 cells. The settings on record: 80 μM dynasore, 1× Brefeldin A or 100 μM nystatin pre-incubation; 3 μM SpHtp1^24-68-mRFP 1 h at 18° C. The format is cell-based, rainbow trout. As to the method: Cell culture maintenance of fish RTG-2 (ATCC CCL-55) was done according to the manufacturer's or publisher's instructions. L-15 medium was supplemented with 10% FBS, 100 units/ml Penicillin and 100 μg/ml Streptomycin. Wells containing cover slips with attached cells of 80% confluent were washed 2× with HBSS before translocation experiments.
For experiments investigating translocation mechanism, cells were pre-incubated with various inhibitors (80 μM of dynasore, 1× Brefeldin A or 100 μM nystatin) for 1 h at 18° C., 2 h for dynasore (FIG. 2). Afterwards, 3 μM SpHtp1^24-68-mRPF were incubated for another 1 h at 18° C. For the time course experiment (FIG. 2) cells were pre-incubated with 10 μM dynasore and the incubation with 3 μM SpHtp1^24-68-mRPF at 18° C. stopped at the times as indicated. In order to investigate the influence of SpHtp1^24-198-His on the vesicle release of SpHtp3^21-211-RFP, 3 μM of each protein was pre-incubated in L-15 for 30 min at RT before added to the cells for the usual incubation of 1 h at 18° C.
(§1) After incubation human as well as fish cells were washed 3× with HBSS and fixed with 4% ice-cold PFA in PBST (PBS+0.1% tween) for 15 min at RT. Residual PFA was removed with 5× washing steps with PBS. Cells were mounted with Vectashield with DAPI. Samples were analysed by a Zeiss LSM710 confocal microscope or an epifluorescence microscope (Zeiss Imager M2 with metal halide light source). For quantification mean intensity or vesicles per cell were counted with ImageJ. A maximum of 5 cells were analysed from the same picture. Bars denote s.e.m of 50 cells counted per sample.

Series [1] relates to human A549 cells. Nature of the series: Inhibitor studies of SpHtp1^24-68-mRFP translocation into A549 cells. The series is classed as cell-based. How it is done: (§2) Cell culture maintenance of human A549 cell, was done according to the manufacturer's or publisher's instructions. DMEM medium was supplemented with 10% FBS, 100 units/ml Penicillin and 100 μg/ml Streptomycin. Wells containing cover slips with attached cells of 80% confluent were washed 2× with HBSS before the translocation experiments.
For the inhibitor studies, A549 cells were pre-incubated with different concentrations of SCH-202676 (allosteric inhibitor via disulfhydryl group) as indicated for 1 h at 37° C. and after this incubated for another 1 h at 37° C. with 3 μM SpHtp1^24-68-mRPF.
as §1

Series [2] concerns the target T1, β2-adrenergic receptor (Homo sapiens, UniProt P07550).
For series [3], the system named is human cells (such as HEK cells or the human epithelial lung cell line A549). Kind of series: Translocation into human cells. The series is classed as cell-based.
A further series has as its system fish cells. Nature of the series: Translocation into fish cells. The series is classed as cell-based.
The subject of another series is cells. Kind of series: Cytotoxic effects, cell morphology and viability after extended incubation. The settings on record: extended incubation periods of up to 24 hours. The series is classed as cell-based.
Series [4] has as its target T1, β2-adrenergic receptor. Kind of series: Co-immunoprecipitation with anti-β2 adrenoceptor antibody. The format is binding. Also on record: confluent A549 cells from a 75 cm^2 flask where detached and resuspended in 500 μl PBS; The cells were lysed by sonication; endogenous in cells; host or cells: A549 (human lung epithelial cell line), sonicated lysate supernatant. The settings on record: A549 lysate, 10 μM SpHtp1^24-68-RFP; FIG. 3C. As to the method:
For co-immunoprecipitation (FIG. 3) confluent A549 cells from a 75 cm^2 flask where detached and resuspended in 500 μl PBS. The cells were lysed by sonication (3×30 sec, 30% intensity, 1 min break on ice) and cell debris removed by centrifugation (16,000×g, 25 min, 4° C.). The supernatant was supplemented with 10 μM SpHtp1^24-68-RFP and 2.5 μg of an anti-82 adrenoceptor and incubated overnight on rotator at 4° C. The next day 200 μl PBS-equilibrated protein G/A beads were added for 2.5 h on rotator at 4° C. After, beads were washed 5 times with 1 ml PBS each. The elution was done with SDS sample buffer and boiling at 95° C. for 10 min.
For the immunoblot, samples were transferred to a nitrocellulose membrane and blocked with 5% milk powder in PBST (PBS+0.1% tween) for 1 h at RT. Incubation of the first antibody (anti-(32 adrenoceptor, 1:200) was done overnight on rotator at 4° C. Excess of antibody was removed by 3 washing steps with PBST, 5 min each. The secondary antibody (anti-rabbit HRP-coupled, 1:1000) was incubated for 1 h at RT in PBST with 5% milk powder. The membrane was washed 4 times (2×PBST and 2×PBS) before the bands were visualised with an ECL substrate and a developer.

Another series relates to SpHtp3. Kind of series: Protein cross linking of SpHtp1 and SpHtp3. The series is classed as binding, Saprolegnia parasitica. The note with it: PFA cross link; FIG. 5E. As to the method: In order to detect a direct interaction, 10 μg of SpHtp1 and 10 μg of SpHtp3 or each protein alone were pre-incubated in PBS (total: 15 μl) for 15 min at RT. For cross linking 15 μl ice-cold 4% PFA/PBS (final concentration: 2%) was added and incubated for 10 min at RT. The reaction was stopped with 7 μl Laemmli loading dye and subsequent heating to 65° C. for 10 min. Complex formation was investigated by SDS-PAGE and confirmed by LC-MS/MS.

Series [5] has as its system human A549 cells. Nature of the series: Translocation of SpHtp1^24-68-mRFP into human A549 cells. The format is cell-based. The settings on record: see FIG. 2A, 2C. As to the method:
as §2
For translocation experiments using SpHtp1-coupled microparticles (FIG. 1), 300 μg carbon beads were pre-incubated with 3 μM SpHtp1^24-68-mRPF in 300 μl DMEM without Fetal Calf Serum for 1 h at 37° C. on a rotator to couple the SpHtp1 translocation sequence to the particles. […] Following coupling, the supplemented medium was applied to the cells for 1 h at 37° C. For translocation experiments using SpHtp1^24-68-mRPF (FIG. 2) cells were incubated with 3 μm SpHtp1^24-68-mRPF for 1 h at 37° C.
as §1

As to `C[C@H]1CCC/C=C/[C@@H]2C[C@H](O)C[C@H]2[C@H](O)/C=C/C(=O)O1` [Brefeldin A], the “effect on SpHtp1^24-68-mRFP translocation” value in the series on RTG-2 cells is “no effect”.
As to `CN=c1nc(-c2ccccc2)n(-c2ccccc2)s1` [SCH-202676], in the series on human A549 cells [1] (10 μM SCH-202676, FIG. 3A), the “binding of SpHtp1^24-68-mRFP to the cells after pre-incubation with inhibitor” value was “not influenced” and the “translocation of SpHtp1^24-68-mRFP into cells after pre-incubation with inhibitor” value is listed as “inhibited”. The “concentration dependence of inhibition of translocation” value in the series with human A549 cells [1] (different concentrations, 1 h at 37° C., FIG. 3B) is “concentration-dependent”.
Take `CNCC(O)c1ccc(O)c(O)c1` (stereo not drawn) [adrenalin]: the “effect of endogenous receptor ligands on the uptake of SpHtp1” value with human A549 cells [1] is on record as “do not have an effect”.
As to `O=C(N/N=C/c1ccc(O)c(O)c1)c1cc2ccccc2cc1O` [dynasore], the “effect on SpHtp1^24-68-mRFP translocation” value with RTG-2 cells is “accumulation of red fluorescence at the membrane”.
`NC[C@H](O)c1ccc(O)c(O)c1` [noradrenalin]: the “effect of endogenous receptor ligands on the uptake of SpHtp1” value with human A549 cells [1] is “do not have an effect”.
As to `C[C@@H]1[C@H](O)[C@@H](C)/C=C/C=C/CC/C=C/C=C/C=C/C=C/C(O[C@H]2O[C@H](C)[C@@H](O)[C@H](N)[C@@H]2O)CC2O[C@](O)(CC(O)C(O)CCC(O)CC(O)CC(O)CC(=O)O[C@H]1C)CC(O)C2C(=O)O` (stereo partly drawn) [nystatin], the “effect on SpHtp1^24-68-mRFP translocation” value in the series on RTG-2 cells was “no effect”.
For SpHtp1^24-68-mRFP, in the series with β2-adrenergic receptor [2], the uptake into the cell, EC50 worked out at 1230 nM.

B1: SpHtp1a: SpHtp1 homolog shown in FIG. 6 (protein)
chain: MRIYHPLTLAALCVVLHESLGAAQHSNNVARLEHYSVAEIEHWEKRHLRNSDSRGHRHHAHHGQVIDKENNNSQEQATTGNSVETNQVPFTQPTKDKTASIKTAVFKLLRENKLKTKNAGNGHAHDDDDDDDSNFSDDDVPTNAPTGAPTGAPTDAPTNAPTDAPTDAPTDAPTDAPTDAPTDAPTDAPTTLPPMPRRRSHRCPDRHSHRCDPRRTHGCPD
modifications: SpHtp1a (1-221)
On to B1, for which the “translocation into human cells” value in series [3] was “able to translocate into both fish and human cells”. Also, the “translocation into fish cells” value with fish cells was “able to translocate into both fish and human cells”.

B2: SpHtp1: putative effector protein from the fish pathogenic oomycete Saprolegnia parasitica, full-length 198 amino acids (protein)
chain: MRIHHPLTLAALCVVLHESLGAAQHSNNVARLEHYRIAEIEHWEKRHLRSDSRGHRHHAHHGQVIDKENNNSQEQATTGNSVETNQVPSTEPTKDKTTPMKNALFKLFREKKLKTKNAGNGHAHDDDDDSDFSDDDVPTNAPTDAPTGAPTDAPTDAPTVAPTDAPTDAPTEAPTNAPTGTDAPTDAPTDAQVVPTFD
modifications: SpHtp1 (1-198)
B2: the “cytotoxic effects, cell morphology, viability” value in the series on cells is “do not have any immediate cytotoxic effects on cells, and do not alter cell morphology or viability”. Besides, the “entry into human cells” value in series [3] (via the β-adrenoceptor) is listed as “able to enter human cells”. In the series with β2-adrenergic receptor [4], the “interaction with the β2-adrenergic receptor by co-immunoprecipitation” value is “at least indirect interaction”. Moreover, the “in vitro complex formation after cross link (SDS-PAGE, LC-MS/MS)” value with SpHtp3 is on record as “additional band for a cross-linked SpHtp1-SpHtp3 complex”. For the same molecule, the EC50 with human A549 cells [5] (cell line not given, read-out: uptake into the cell, EC50) came to 1230 nM. In addition, in the series on human A549 cells [5], the “time of binding of SpHtp1 to the cell surface” value was in the range of 5 to 10 min and the “time to significant uptake into the cell” value fell in the range of 20 to 30 min.

A word on the EC50: it is the concentration at which the effect is half-maximal.

The values above are taken from patent publication US20210205462A1, “Translocation into Eukaryotic Cells” (The University Court of the University of Aberdeen, priority 2018, published 2021).
